This note sets out measurements from patent publication USRE48558 (Genentech, dated 2021).

Experiment [1] concerns the target T1, extracellular domain of human CD79b (human, UniProt P40259 29-159).
T1 construct: also called huCD79becd; huCD79b-ecd
T1 sequence: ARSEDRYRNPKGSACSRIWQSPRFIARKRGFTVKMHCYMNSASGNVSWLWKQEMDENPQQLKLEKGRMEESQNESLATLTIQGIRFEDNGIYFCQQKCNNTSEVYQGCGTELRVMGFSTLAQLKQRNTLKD
The experiment is described as follows: SPR (Biacore), IgG, immobilized huCD79becd.

For experiment [2], the target named is T2, human CD79b on the cell surface (human, UniProt P40259 29-229).
T2 construct: In the Scatchard analysis the BJAB line also stably expressed cynomolgus CD79b; also called PRO36249; endogenous human CD79b on DoHH-2, BJAB and BJAB-luciferase cells
T2 sequence: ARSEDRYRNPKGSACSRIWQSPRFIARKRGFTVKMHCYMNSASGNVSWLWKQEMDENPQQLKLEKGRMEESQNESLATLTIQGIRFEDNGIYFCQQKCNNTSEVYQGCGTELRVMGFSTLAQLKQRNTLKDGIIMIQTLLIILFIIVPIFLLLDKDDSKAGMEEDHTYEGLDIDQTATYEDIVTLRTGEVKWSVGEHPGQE
The experiment is described as follows: Scatchard analysis, IgG, BJAB cells stably expressing cynomolgus CD79b and endogenous human CD79b.

The target of experiment [3] is T1, extracellular domain of human CD79b. The experiment is described as follows: phage selection, Fab on phage, plate-bound huCD79becd.
Experiment [4] addresses T2, human CD79b on the cell surface. The experiment is described as follows: FACS on DoHH-2 cells, Fab, PE anti-human kappa detection.
The target in experiment [5] is T3, 16 amino acid peptide containing the epitope for MA79b (ARSEDRYRNPKGSACK) (human, also: biotinylated, site not given here).
T3 construct: Synthetic
T3 peptide: ARSEDRYRNPKGSACK
The experiment is described as follows: SPR (Biacore), biotinylated peptide captured on streptavidin chip. In general terms: Surface plasmon resonance follows binding to a sensor surface in real time, without labels.

The target of experiment [6] is T2, human CD79b on the cell surface. Description: Scatchard analysis, 125I-labelled IgG competed with unlabelled IgG on BJAB cells stably expressing cynomolgus CD79b and endogenous human CD79b.
Experiment [7] concerns the target T1, extracellular domain of human CD79b. Description: FACS analysis, IgG (data not shown); reference not given. For orientation: Flow cytometry measures light scatter and fluorescence of single cells or particles in a stream.
For experiment [8] the target is unchanged. The experiment is described as follows: SPR (Biacore), IgG, immobilized huCD79becd; reference not given.
The target in experiment [9] is T4, extracellular domain of human CD79b fused to Fc (human, UniProt P40259 29-159).
T4 construct: also called huCD79becd-Fc; huCD79b-Fc; not shown: Fc part of the fusion
T4 sequence: T1 sequence
Description: SPR (Biacore), Fab against MA79b Fab, immobilized huCD79becd-Fc.

Experiment [10] deals with T4, extracellular domain of human CD79b …. Description: SPR (Biacore), IgG compared with Fab, immobilized huCD79becd-Fc.

Substitutions are numbered along the chain they refer to. Names may count otherwise. Where no end group is shown, it is not given here.

B1: MA79b-grafted humanized antibody variant 18 (antibody, human IgG1, kappa)
light: DIQLTQSPSSLSASVGDRVTITCKASQSVDYDGDSFLNWYQQKPGKAPKLLIYAASNLESGVPSRFSGSGSGTDFTLTISSLQPEDFATYYCQQSNEDPLTFGQGTKVEIKRTVAAPSVFIFPPSDEQLKSGTASVVCLLNNFYPREAKVQWKVDNALQSGNSQESVTEQDSKDSTYSLSSTLTLSKADYEKHKVYACEVTHQGLSSPVTKSFNRGEC
heavy: not shown
notes: IgG; also called huMA79b.v18; MA79b.v18
As for B1, the “fold improvement in dimeric binding compared to variant 17” value in experiment [1] amounted to 2 fold.

B2: MA79b-grafted humanized antibody variant 28 (antibody, human IgG1, kappa)
light: B1 light with D32E
heavy: not shown
notes: IgG; also called huMA79b.v28
Broadly, the Kd is the free concentration of one partner at which half of the binding sites on the other are occupied at equilibrium, for simple one-to-one binding. Read a high Kd as lower affinity. The molecule B2 registered a Kd in experiment [2] of 440 pM.

B3: MA79b-grafted humanized antibody variant 32 (antibody, human IgG1, kappa, V domains shown)
VH: EVQLVESGGGLVQPGGSLRLSCAASGYTFSSYWIEWVRQAPGKGLEWIGEILPGGGDTNYNEIFKGRATFSADTSKNTAYLQMNSLRAEDTAVYYCTRRVPIRLDYWGQGTLVTVSS
VL: DIQLTQSPSSLSASVGDRVTITCKASQSVDYSGDSFLNWYQQKPGKAPKLFIYAASNLESGVPSRFSGSGSGTDFTLTISSLQPEDFATYYCQQSNEDPLTFGQGTKVEIKR
notes: also called huMA79b.v32; MA79b.v32
In experiment [2], B3 had a dissociation constant Kd of 240 pM.

B4: MA79b-grafted humanized antibody variant 17 (antibody, human IgG1, kappa, V domains shown)
VH: B3 VH with I102V, R103Y, L104F
VL: B3 VL with S32D, F51L
notes: IgG; also called huMA79b.v17
Consider B4, for which the binding result in [1] is “binds”.

B5: huMA79b H3-10 (Fab) (Fab, name in Kabat numbering, V domains shown)
VH: B3 VH with I48V, A68F, F70I
VL: B3 VL with L4M, S32D, F51L
notes: Fab on phage in the selection; purified Fab in FACS; rest as huMA79b graft; also called H3-10 mutation
Regarding B5, the binding result in [3] and in experiment [4] was “binds” in each case.

B6: MA79b-grafted humanized antibody variant L2/H3 (antibody, name in Kabat numbering, V domains shown)
VH: B3 VH with I48V, A68F, F70I
VL: B3 VL with L4M, S32D, F51L, S56R, N57K, E59G, S60R
notes: 125I-labelled in the Scatchard analysis; also called huMA79b L2/H3
In the case of B6, the binding result in experiment [5] is reported as “binds”. This molecule returned a Kd in [6] of 520 pM.

B7: MA79b-grafted humanized antibody (IgG) (antibody, V domains shown)
VH: B3 VH with I48V, A68F, F70I, I102V, R103Y, L104F
VL: B3 VL with L4M, S32D, F51L
notes: Expressed as IgG; also called huMA79b graft; huMA79b-graft
Regarding B7, the “fold reduction in binding affinity” value in experiment [7] is above 100 fold. In [8], the “fold loss of affinity” value is above 50 fold.

B8: huMA79b graft variant H1-1 (Fab) (Fab, name in Kabat numbering, V domains shown)
VH: B3 VH with T28P, S30N, S31R, E35N, I48V, A68F, F70I, I102V, R103Y, L104F
VL: B3 VL with L4M, S32D, F51L
notes: Fab on phage in the selection; purified Fab in FACS; rest as huMA79b graft; also called H1-1 mutation
For B8, the binding result in experiment [3] and in experiment [4] was “binds” in each case.

B9: huMA79b L2-2 (Fab) (Fab, name in Kabat numbering, V domains shown)
VH: B3 VH with I48V, A68F, F70I, I102V, R103Y, L104F
VL: B3 VL with L4M, S32D, F51L, S56R, N57K, E59G, S60R
notes: Fab on phage in the selection; purified Fab in FACS and Biacore; rest as huMA79b graft; also called L2-2 mutation; MA79b-grafted humanized antibody variant L2-2
For B9, the “fold improvement in monomeric binding compared to MA79b” value in experiment [9] is 5 fold.

B10: murine anti-CD79b monoclonal antibody MA79b (antibody, V domains shown)
VL: DIVLTQSPASLAVSLGQRATISCKASQSVDYDGDSFLNWYQQKPGQPPKLFIYAASNLESGIPARFSGSGSGTDFTLNIHPVEEEDAATYYCQQSNEDPLTFGAGTELELKR
VH: EVQLQQSGAELMKPGASVKISCKATGYTFSSYWIEWVKQRPGHGLEWIGEILPGGGDTNYNEIFKGKATFTADTSSNTAYMQLSSLTSEDSAVYYCTRRVPVYFDYWGQGTSVTVSS
notes: Murine IgG; 125I-labelled in the Scatchard analysis; also called murine CD79b antibody; original mouse anti-CD79b monoclonal antibody
Take B10: in experiment [10], the “fold avidity component (IgG against Fab of MA79b)” value is 100 fold. The molecule also displayed a Kd in [6] of 630 pM.
